Data published in article PMC9463131, “SLITRK1-mediated noradrenergic projection suppression in the neonatal prefrontal cortex” (Communications Biology, 2022).
Values joined by “and” are separate entries in the source; they are usually repeats but may differ in a detail not shown here. Equal entries are not always repeated.

Experiments:
[1] = target: T1, human PTPRD ECD-His6 (ACROBiosystems) (human, UniProt P23468 21-1265); assay: BLI
T1 chain: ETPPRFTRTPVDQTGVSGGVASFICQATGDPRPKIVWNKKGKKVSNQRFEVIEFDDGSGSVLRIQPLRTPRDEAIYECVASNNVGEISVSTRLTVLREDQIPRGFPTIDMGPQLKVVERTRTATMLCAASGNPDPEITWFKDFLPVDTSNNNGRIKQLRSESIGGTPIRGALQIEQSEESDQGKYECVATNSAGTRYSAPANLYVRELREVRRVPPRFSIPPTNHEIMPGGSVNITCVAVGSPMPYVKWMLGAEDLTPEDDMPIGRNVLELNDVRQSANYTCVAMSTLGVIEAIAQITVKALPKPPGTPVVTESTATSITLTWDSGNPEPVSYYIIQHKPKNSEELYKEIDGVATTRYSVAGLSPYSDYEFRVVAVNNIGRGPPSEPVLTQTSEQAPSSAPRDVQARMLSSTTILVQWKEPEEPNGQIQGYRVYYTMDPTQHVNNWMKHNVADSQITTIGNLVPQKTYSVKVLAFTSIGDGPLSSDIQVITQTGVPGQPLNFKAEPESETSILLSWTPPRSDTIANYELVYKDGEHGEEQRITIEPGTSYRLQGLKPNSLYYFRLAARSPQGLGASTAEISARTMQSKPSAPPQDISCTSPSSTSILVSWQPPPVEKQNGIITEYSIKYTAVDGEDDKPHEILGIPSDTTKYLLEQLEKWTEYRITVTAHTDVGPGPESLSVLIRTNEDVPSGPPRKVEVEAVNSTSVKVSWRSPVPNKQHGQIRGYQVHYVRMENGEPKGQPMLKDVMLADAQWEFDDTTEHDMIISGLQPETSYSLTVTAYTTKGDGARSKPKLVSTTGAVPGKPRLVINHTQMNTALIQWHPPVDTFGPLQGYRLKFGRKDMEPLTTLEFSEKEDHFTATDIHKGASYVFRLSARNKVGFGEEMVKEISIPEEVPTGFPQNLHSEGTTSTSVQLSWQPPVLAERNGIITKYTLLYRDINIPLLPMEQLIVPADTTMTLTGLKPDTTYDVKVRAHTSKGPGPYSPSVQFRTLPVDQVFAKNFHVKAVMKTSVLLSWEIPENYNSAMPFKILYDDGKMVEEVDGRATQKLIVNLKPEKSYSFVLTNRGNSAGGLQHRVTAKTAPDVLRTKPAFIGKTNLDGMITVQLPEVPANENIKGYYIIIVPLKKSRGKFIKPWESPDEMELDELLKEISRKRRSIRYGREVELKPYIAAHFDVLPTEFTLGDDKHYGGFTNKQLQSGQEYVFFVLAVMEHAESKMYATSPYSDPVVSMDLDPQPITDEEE

[2] = target: T2, human Neurofascin ECD-His6 (8208-NF-050, R&D Systems) (human); assay: BLI
T2 chain: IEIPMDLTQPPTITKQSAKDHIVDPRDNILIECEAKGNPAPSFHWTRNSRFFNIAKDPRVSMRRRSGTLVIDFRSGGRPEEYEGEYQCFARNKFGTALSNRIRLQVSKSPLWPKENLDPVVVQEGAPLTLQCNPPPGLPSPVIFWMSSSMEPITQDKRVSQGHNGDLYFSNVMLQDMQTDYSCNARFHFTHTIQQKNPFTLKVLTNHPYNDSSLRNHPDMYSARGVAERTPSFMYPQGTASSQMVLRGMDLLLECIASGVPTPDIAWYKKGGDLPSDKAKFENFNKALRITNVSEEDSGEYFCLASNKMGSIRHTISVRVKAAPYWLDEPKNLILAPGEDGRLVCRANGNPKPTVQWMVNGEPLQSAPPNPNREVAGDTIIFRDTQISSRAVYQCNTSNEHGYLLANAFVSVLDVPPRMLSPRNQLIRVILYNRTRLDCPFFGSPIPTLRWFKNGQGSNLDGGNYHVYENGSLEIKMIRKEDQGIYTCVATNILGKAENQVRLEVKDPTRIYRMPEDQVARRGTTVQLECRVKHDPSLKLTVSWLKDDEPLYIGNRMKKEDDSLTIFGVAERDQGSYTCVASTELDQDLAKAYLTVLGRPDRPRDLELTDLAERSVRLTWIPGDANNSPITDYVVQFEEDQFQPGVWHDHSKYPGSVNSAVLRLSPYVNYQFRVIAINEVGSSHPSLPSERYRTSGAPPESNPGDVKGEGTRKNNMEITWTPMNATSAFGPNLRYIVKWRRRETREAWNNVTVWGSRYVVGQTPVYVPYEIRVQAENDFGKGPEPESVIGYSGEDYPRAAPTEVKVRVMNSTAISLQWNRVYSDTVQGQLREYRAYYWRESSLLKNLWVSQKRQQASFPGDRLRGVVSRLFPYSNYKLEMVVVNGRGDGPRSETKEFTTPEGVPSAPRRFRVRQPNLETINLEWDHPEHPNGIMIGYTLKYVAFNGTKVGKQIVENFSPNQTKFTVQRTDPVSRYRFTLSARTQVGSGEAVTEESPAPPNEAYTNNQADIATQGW

[3] = target: T3, L1CAM ECD-His6 (777-NC-100, R&D Systems) (UniProt P32004 20-1120); assay: BLI
T3 chain: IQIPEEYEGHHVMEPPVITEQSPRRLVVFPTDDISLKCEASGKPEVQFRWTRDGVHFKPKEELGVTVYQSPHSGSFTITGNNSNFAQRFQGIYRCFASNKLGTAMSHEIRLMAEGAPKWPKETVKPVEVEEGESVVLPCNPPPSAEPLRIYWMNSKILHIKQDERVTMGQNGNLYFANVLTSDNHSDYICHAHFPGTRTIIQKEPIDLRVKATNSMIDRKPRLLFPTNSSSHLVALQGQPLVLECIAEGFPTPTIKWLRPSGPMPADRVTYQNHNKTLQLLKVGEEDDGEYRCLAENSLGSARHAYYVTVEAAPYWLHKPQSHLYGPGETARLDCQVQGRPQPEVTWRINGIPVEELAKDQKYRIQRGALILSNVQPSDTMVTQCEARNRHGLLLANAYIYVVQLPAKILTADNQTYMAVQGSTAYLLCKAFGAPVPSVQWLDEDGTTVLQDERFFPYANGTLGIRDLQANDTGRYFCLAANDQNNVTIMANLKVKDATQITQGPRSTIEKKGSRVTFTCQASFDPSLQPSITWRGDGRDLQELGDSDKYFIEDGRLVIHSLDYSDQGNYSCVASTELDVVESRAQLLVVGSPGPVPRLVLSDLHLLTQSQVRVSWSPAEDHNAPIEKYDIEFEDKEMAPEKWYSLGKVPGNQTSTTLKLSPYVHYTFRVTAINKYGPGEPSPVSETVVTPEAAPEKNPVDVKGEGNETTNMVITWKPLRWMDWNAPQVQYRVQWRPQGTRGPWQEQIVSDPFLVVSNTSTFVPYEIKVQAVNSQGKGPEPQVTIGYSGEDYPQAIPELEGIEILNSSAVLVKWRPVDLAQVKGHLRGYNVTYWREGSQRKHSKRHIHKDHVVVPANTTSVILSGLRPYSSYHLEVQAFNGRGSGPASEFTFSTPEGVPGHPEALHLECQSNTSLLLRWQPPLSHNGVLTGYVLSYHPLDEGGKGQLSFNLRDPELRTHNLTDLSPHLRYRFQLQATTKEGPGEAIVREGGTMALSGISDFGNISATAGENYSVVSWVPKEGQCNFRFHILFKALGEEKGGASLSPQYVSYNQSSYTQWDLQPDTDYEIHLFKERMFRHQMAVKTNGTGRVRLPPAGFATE

[4] = target: T4, human PTPRD ECD-His6 (human, UniProt P23468 21-1265); assay: quartz crystal microbalance; SLITRK1 ECD-Fc (about 200 fmol) immobilised on the 27 MHz gold resonator through anti-human IgG Fc-HRP; ECD-His6 proteins added in solution; 50 mM Tris-HCl pH 7.6, 15 mM NaCl, 140 mM KCl, 0.5 mM MgCl2, 2 mM CaCl2; 25 ± 1 °C; kon and koff from 1/τ against concentration, KD = koff/kon; each sheet row is one experiment; settings: both partners purified
T4 construct: human PTPRD (receptor-type protein tyrosine phosphatase delta) extracellular domain; No catalogue number printed; also called PTPRδ; source: bought: ACROBiosystems
T4 sequence (looked up): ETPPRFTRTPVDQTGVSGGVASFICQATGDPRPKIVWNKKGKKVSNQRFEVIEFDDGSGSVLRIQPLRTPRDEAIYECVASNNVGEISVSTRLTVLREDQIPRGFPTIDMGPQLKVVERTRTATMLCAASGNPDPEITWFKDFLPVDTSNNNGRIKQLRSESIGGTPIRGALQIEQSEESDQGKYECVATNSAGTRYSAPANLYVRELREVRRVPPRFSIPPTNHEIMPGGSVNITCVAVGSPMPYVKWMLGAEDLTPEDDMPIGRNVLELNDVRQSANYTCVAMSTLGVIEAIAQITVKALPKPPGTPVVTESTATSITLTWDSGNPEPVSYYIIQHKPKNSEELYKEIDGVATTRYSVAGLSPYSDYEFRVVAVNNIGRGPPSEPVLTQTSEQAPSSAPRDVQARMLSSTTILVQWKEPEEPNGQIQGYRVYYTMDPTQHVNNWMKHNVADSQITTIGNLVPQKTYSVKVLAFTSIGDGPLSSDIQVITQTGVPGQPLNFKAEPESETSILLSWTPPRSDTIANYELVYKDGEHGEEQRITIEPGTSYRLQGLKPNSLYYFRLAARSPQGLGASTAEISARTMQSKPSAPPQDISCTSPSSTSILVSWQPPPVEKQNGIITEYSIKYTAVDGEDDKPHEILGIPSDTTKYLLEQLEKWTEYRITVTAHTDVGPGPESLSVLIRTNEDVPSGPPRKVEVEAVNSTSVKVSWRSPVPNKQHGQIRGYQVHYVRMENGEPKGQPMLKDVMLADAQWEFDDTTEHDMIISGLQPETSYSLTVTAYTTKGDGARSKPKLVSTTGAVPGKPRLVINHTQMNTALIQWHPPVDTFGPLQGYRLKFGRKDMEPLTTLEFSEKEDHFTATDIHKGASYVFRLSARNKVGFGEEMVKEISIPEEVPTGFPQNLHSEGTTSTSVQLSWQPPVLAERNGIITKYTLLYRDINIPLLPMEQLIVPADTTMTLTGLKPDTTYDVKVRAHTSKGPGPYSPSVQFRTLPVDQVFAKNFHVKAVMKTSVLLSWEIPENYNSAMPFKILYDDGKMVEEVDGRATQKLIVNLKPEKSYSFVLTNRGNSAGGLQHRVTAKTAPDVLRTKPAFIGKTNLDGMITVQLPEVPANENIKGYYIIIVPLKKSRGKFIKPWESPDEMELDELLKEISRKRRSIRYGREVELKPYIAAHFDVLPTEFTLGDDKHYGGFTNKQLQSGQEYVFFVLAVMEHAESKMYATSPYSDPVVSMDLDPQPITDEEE

[5] = target: human Neurofascin ECD-His6 (human, UniProt O94856 25-1217, Mammalian-expressed glycoprotein is likely. C-terminal His6 tag omitted. The limits are not printed. The paper names catalogue 8208-NF-050 as Neurofascin 155, so the chain runs from after the signal p); assay: as above; settings: both partners purified

B1: SLITRK1 ECD-immunoglobulin Fc domain-fusion protein (SLITRK1-WT-Fc) (Fc fusion)
chain: NVTGDVCKEKICSCNEIEGDLHVDCEKKGFTSLQRFTAPTSQFYHLFLHGNSLTRLFPNEFANFYNAVSLHMENNGLHEIVPGAFLGLQLVKRLHINNNKIKSFRKQTFLGLDDLEYLQADFNLLRDIDPGAFQDLNKLEVLILNDNLISTLPANVFQYVPITHLDLRGNRLKTLPYEEVLEQIPGIAEILLEDNPWDCTCDLLSLKEWLENIPKNALIGRVVCEAPTRLQGKDLNETTEQDLCPLKNRVDSSLPAPPAQEETFAPGPLPTPFKTNGQEDHATPGSAPNGGTKIPGNWQIKIRPTAAIATGSSRNKPLANSLPCPGGCSCDHIPGSGLKMNCNNRNVSSLADLKPKLSNVQELFLRDNKIHSIRKSHFVDYKNLILLDLGNNNIATVENNTFKNLLDLRWLYMDSNYLDTLSREKFAGLQNLEYLNVEYNAIQLILPGTFNAMPKLRILILNNNLLRSLPVDVFAGVSLSKLSLHNNYFMYLPVAGVLDQLTSIIQIDLHGNPWECSCTIVPFKQWAERLGSEVLMSDLKCETPVNFFRKDFMLLSNDEICPQLYARISPTLTSHSKNSTGLAETGTHSNSYLDTSRVS
koff [1]: 0.00351 s⁻¹
koff [2]: 0.00256 s⁻¹
koff [3]: 0.00088 s⁻¹

B2: SLITRK1 ECD-immunoglobulin Fc domain-fusion protein (SLITRK1-WT-Fc) (Fc fusion, human, UniProt Q96PX8 18-616, looked up)
chain: NVTGDVCKEKICSCNEIEGDLHVDCEKKGFTSLQRFTAPTSQFYHLFLHGNSLTRLFPNEFANFYNAVSLHMENNGLHEIVPGAFLGLQLVKRLHINNNKIKSFRKQTFLGLDDLEYLQADFNLLRDIDPGAFQDLNKLEVLILNDNLISTLPANVFQYVPITHLDLRGNRLKTLPYEEVLEQIPGIAEILLEDNPWDCTCDLLSLKEWLENIPKNALIGRVVCEAPTRLQGKDLNETTEQDLCPLKNRVDSSLPAPPAQEETFAPGPLPTPFKTNGQEDHATPGSAPNGGTKIPGNWQIKIRPTAAIATGSSRNKPLANSLPCPGGCSCDHIPGSGLKMNCNNRNVSSLADLKPKLSNVQELFLRDNKIHSIRKSHFVDYKNLILLDLGNNNIATVENNTFKNLLDLRWLYMDSNYLDTLSREKFAGLQNLEYLNVEYNAIQLILPGTFNAMPKLRILILNNNLLRSLPVDVFAGVSLSKLSLHNNYFMYLPVAGVLDQLTSIIQIDLHGNPWECSCTIVPFKQWAERLGSEVLMSDLKCETPVNFFRKDFMLLSNDEICPQLYARISPTLTSHSKNSTGLAETGTHSNSYLDTSRVS
notes: signal peptide in the construct; human SLITRK1 extracellular domain, amino acid number 1-616 in NP_443142; Held on the resonator through anti-human IgG Fc; also called SLITRK1 ECD-Fc
Kd [4]: 110 nM and 202 nM and 144 nM
koff [4]: 0.00348 s⁻¹ and 0.00358 s⁻¹ and 0.00347 s⁻¹
kon [4]: 31600 M⁻¹ s⁻¹ and 17700 M⁻¹ s⁻¹ and 24100 M⁻¹ s⁻¹
Kd [5]: 18.7 nM and 15.5 nM and 15.7 nM
koff [5]: 0.00278 s⁻¹ and 0.00247 s⁻¹ and 0.00243 s⁻¹
kon [5]: 154000 M⁻¹ s⁻¹ and 149000 M⁻¹ s⁻¹ and 159000 M⁻¹ s⁻¹
